Laboratory results as given in patent US20040214230A1.

B1: porcine GALP (peptide)
peptide: APVHRGRGGWTLNSAGYLLGPVLHPPSRAEGGGKGKTALGILDLWKAIDGLPYPQSQLAS
B2: rat GALP (peptide)
peptide: APAHRGRGGWTLNSAGYLLGPVLHLSSKANQGRKTDSALEILDLWKAIDGLPYSRSPRMT
B3: human GALP (peptide)
peptide: APAHRGRGGWTLNSAGYLLGPVLHLPQMGDQDGKRETALEILDLWKAIDGLPYSHPPQPS

Biological target: monoclonal antibody GR-1Ca
Experiment: competitive EIA: GALP varied against HRP-labeled [Cys^43] rat GALP (43-60); GR-1Ca solution of 80 ng/ml on anti-mouse immunoglobulin plate

| Binder | IC50 [nM] |
| --- | --- |
| B1 | 8 |
| B2 | 3 |
| B3 | 7 |

Biological target: monoclonal antibody GR-2Ca
Experiment: competitive EIA: GALP varied against HRP-labeled [Cys^43] rat GALP (43-60); GR-2Ca solution of 80 ng/ml on anti-mouse immunoglobulin plate

| Binder | IC50 [nM] |
| --- | --- |
| B1 | 500 |
| B2 | 10 |
| B3 | 20 |
